# From the nanobody polyreactivity screen of Harvey et al. (2022)
# Experiment: yeast display, Sf9 membrane polyspecificity reagent, FACS + sequencing; frameworks hold sequencing errors
# Method in brief: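 Using colony PCR, genes from sorted yeast display clones were amplified, then sequenced on MiSeq at 2 × 250 and filtered by CDR length. The clones had been stained with 10% biotinylated, detergent-solubilized Sf9 membrane reagent for 1 hour at 4 °C and sorted by FACS into low and high (top ~1%) gates on anti-HA and streptavidin fluorescence. Polyreactivity labels come from the gate of origin.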
row,Sequence,polyreactivity (PSR sort gate)
1,QVQLVESGGGLVQAGGRLRLSCAASGSIISYYAMGWYRQAPGKERELVATITSSGSTYADSVKGRFTISRDNAKNTVYLQMNSLKPEDTAVYYCNADSGYSEYWGVDVAYDYWGQGTQVTVSS,low polyreactivity
2,QVQLVESGGGLVQAGGRLRLSCAASGSILNFYAMGWYRQAPGKEREFVASISWDGASTYYADSVKGRFTISRDNAKNTVYLPMNSLKPEDTAVYYCAATRYYSFWGQGTQVTVSS,low polyreactivity
3,QVQLVESGGGLVQAGGRLRLSCAASGSNFGLNALGWYRQAPGKERELVAAINSDADTYYADSVKGRFTISRDNAKNTVYLQMNSQKPADTAVYYCAADYYWDPFDSNFGHVPQEYESWGQGTQVTVSS,low polyreactivity
4,QVQLVESGGGLVQAGGRLRLSCAASGSTFDPNAEGWYRPAPGKARELVAVIDSGDGTTYYADSVKGRVTISRDKAKNTVYLQMNSLKPEDTAVYYCAAEFHWWYAGYDYGYWGQGTQVTVSS,low polyreactivity
5,QVQLVESGGGLVQAGGRLRLSCAASGSTFDVYAMGWYRQAPGKERELVAVINTSGTRTYYADSVKGRFTISRDNAKNTVYLQRNSLKPEDTAVYYCNAGGHLEMNYWGQGTQVTVSS,low polyreactivity
6,QVQLVESGGGLVQAGGRLRLSCAASGSTFEVNAMGWYRQAPGKERELVAAISSSAGDTYYADSVKGRFTISRDNAKYTVYLQMNSLKPEDTAVYYCAADYGYSPFDYWGQGTQVTVSS,low polyreactivity
7,QVQLVESGGGLVQAGGRLRLSCAASGSTFIDYAMGWYIHAPGKERELVAAITWDGSSTYYADSVKGRFTISRDNAKNTVYLQMNSLKPEDTAVYYCATDYAGQYPVDGQPIHDYWGQGTQVTVSS,low polyreactivity
8,QVQLVESGGGLVQAGGRLRLSCAASGSTFKSYVMGGSRQAPGKERELVAAISSGDSTYYADSVKGRFTISRDNAKNTVNLQMNSLKPEDTAVYYCAADPGYTVEPWEDDYWGQGTQVTVSS,low polyreactivity
9,QVQLVESGGGLVQAGGRLRLSCAASGSTFPTNVMGWYRQAPGKERELVAAITKRGSITYYADSVKGRFTISRDNAKNTVYLQMNSLKPEDTAVYYCAARKVAVRGYGYWGQGTQVTVSS,high polyreactivity
10,QVQLVESGGGLVQAGGRLRLSCAASGSTFRPYAMGWYRQAPGKERELVAAITFNGDTYADSVKGRFTISRDNAKNTVYLQMNSLKPEDTAVYYCAARKWYYYLRPWTSVGGYYWGQGTQVTVSS,high polyreactivity
11,QVQLVESGGGLVQAGGRLRLSCAASGSTFSRYAMGWYRQAPGKERELVAAISWSGGITYYADSVKGRFTISRDNAKNTVYLQMNSLKPEDTAVYYCAARSRSWSGERGYWGQGTQVTVSS,high polyreactivity
12,QVQLVESGGGLVQAGGRLRLSCAASGSTFVGNAMGWYRQAPGKERELVAAIRKSGGRTYYADSVKGRFTISRDNAKNTVYLQMNSLKPEDTEVYYCAVDRLLYYLIYYRAGVEGGYWGQGTQVTVSS,high polyreactivity
13,QVQLVESGGGLVQAGGRLRLSCAASGSTFVYNAMGWYRPAPGKERELVAAISRSGGRTYYADSVKGRFTISRDNAKNSVYLQMNSLKPEDTAVYYCAVLLRGIEYDYWGQGTQVTVSS,high polyreactivity
14,QVQLVESGGGLVQAGGRLRLSCAASGSTFYLNAMGWYRPAHGKERELVAAITRIGGSTYYADSVKGRFTISRDNAKNTVYLQMYSLTPEDTAVYYCAKDYGQARHDRYGYWGAGTQVTVSS,low polyreactivity
15,QVQLVESGGGLVQAGGRLRLSCAASGSTFYLNAMGWYRQAPGQERELVAAINGGGSTNYADSVKGRFTISRDNAKNTVYLQRNSLKPEDTAVYYCAAETSYANRDRFDYWGQGTQVTVSS,low polyreactivity
16,QVQLVESGGGLVQAGGRLRLSCAASGSTLDTYAMGWYRQAPGKERELVAGITWSGGSTYYADSVKGRFTISRDNAKNTVYLQMNSLKPEDTAVYYCAAYSPYGPRYDYWGQGTQVTVSS,low polyreactivity
17,QVQLVESGGGLVQAGGRLRLSCAASGSTLGYYTMGWYRQAPGKERELVAANTRSGGSTYYADSVKGRFTISRDNAKNTVYLQMNSLKPEDTAVYYCAAAWTRFRIYDYWGQVTQVTVSS,high polyreactivity
